B1: RBZ–3 (Fab, V domains shown)
VH: EVQLVESGGGLVQPGGSLRLSCAASGYDFTHYGMNWVRQAPGKGLEWVGWINTYTGEPTYAADFKRRFTFSLDTSKSTAYLQMNSLRAEDTAVYYCAKYPYYYGTSHWYFDVWGQGTLVTVSS
VL: DIQLTQSPSSLSASVGDRVTITCSASQDISNYLNWYQQKPGKAPKVLIYDTSDLESGVPSRFSGSGSGTDFTLTISSLQPEDFATYYCQQYSTVPWTFGQGTKVEIK
notes: as the light chain of m1 (ranibizumab) before CDR-L1; CDR-L1, same as ranibizumab; as the light chain of m1 (ranibizumab) between CDR-L1 and CDR-L2; CDR-L2, changed from FTSSLHS of ranibizumab; as the light chain of m1 (ranibizumab) after CDR-L2; as the heavy chain of m1 (ranibizumab Fab), unchanged; Charge variant, relative charge -3 against ranibizumab; changes only in CDR-L2; also called TA_2; …
B2: RBZ-HI high (Fab, V domains shown)
VH: EVQLVESGGGLVQPGGSLRLSCAASGYDFTHYGMNWVRQAPGKGLEWVGWINTYTGEPTYAADFKRRFTFSLDTSKSTAYLQMNSLRAEDTAVYYCAKYPYYYGTSHWYFDVWGQGTLVTVSS
VL: DIQLTQSPSSLSASVGDRVTITCSVSQVISSWLAWYQQKPGKAPKVLIYFASSLQTGVPSRFSGSGSGTDFTLTISSLQPEDFATYYCQQYSTVPWTFGQGTKVEIK
notes: as the light chain of m1 (ranibizumab) before CDR-L1; as the light chain of m1 (ranibizumab) between CDR-L1 and CDR-L2; CDR-L2, changed from FTSSLHS of ranibizumab; as the light chain of m1 (ranibizumab) after CDR-L2; as the heavy chain of m1 (ranibizumab Fab), unchanged; Hydrophobicity variant; source: E. coli, 10 L fermentation, purified (Protein G-Sepharose, cation exchange Hitrap SP HP)
B3: RBZ+7 (Fab, V domains shown)
VH: EVQLVESGGGLVQPGGSLRLSCAASGYDFTHYGMNWVRQAPGKGLEWVGWINTYTGEPTYAADFKRRFTFSLDTSKSTAYLQMNSLRAEDTAVYYCAKYPYYYGTSHWYFDVWGQGTLVTVSS
VL: DIQLTQSPSSLSASVGDRVTITCRARQGIRNYLNWYQQKPGKAPKVLIYKTSRRHSGVPSRFSGSGSGTDFTLTISSLQPEDFATYYCQQYSTVPWTFGQGTKVEIK
notes: as the light chain of m1 (ranibizumab) before CDR-L1; as the light chain of m1 (ranibizumab) between CDR-L1 and CDR-L2; CDR-L2, changed from FTSSLHS of ranibizumab; as the light chain of m1 (ranibizumab) after CDR-L2; as the heavy chain of m1 (ranibizumab Fab), unchanged; Charge variant, relative charge +7 against ranibizumab; also called TA_3; source: E. coli, 10 L fermentation, purified …
B4: RBZ-HI low (Fab, V domains shown)
VH: EVQLVESGGGLVQPGGSLRLSCAASGYDFTHYGMNWVRQAPGKGLEWVGWINTYTGEPTYAADFKRRFTFSLDTSKSTAYLQMNSLRAEDTAVYYCAKYPYYYGTSHWYFDVWGQGTLVTVSS
VL: DIQLTQSPSSLSASVGDRVTITCQASQDISNSLNWYQQKPGKAPKVLIYSTSNLHSGVPSRFSGSGSGTDFTLTISSLQPEDFATYYCQQYSTVPWTFGQGTKVEIK
notes: as for B2

These binders were tested against T1, vascular endothelial growth factor (VEGF) (Homo sapiens, UniProt P15692-4) (assay: SPR; Biacore T200; VEGF immobilised, Fabs as analyte). Details: both partners purified.
T1 construct: vascular endothelial growth factor (VEGF-A); The SPR paragraph says only 'immobilized VEGF'; also called recombinant human VEGF
T1 sequence (P15692 whole entry): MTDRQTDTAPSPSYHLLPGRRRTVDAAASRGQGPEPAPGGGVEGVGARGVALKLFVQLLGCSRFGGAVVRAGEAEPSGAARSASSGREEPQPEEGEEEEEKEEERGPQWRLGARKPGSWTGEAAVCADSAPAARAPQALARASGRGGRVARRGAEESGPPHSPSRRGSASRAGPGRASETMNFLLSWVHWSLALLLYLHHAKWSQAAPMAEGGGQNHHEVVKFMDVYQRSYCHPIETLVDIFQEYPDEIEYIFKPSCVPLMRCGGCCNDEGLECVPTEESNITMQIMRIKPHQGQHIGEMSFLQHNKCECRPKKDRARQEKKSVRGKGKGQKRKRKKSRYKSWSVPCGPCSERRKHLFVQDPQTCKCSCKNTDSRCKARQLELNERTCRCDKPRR

Kd, < 5 nM:
B1
B2
B3
B4

Source: article PMC6827426 (Translational Vision Science & Technology, 2019)
